# Test results as given in US20120094909A1 (Bristol-Myers Squibb, published 2012).
# Residue numbers refer to the chain shown, from its start. Names may count otherwise.
# B1: 2381B02 (designed binder)
# chain: MGVSDVPRDLEVVAATPTSLLISWEPFSRLPGGGEYYRITYGETGGNSPLQQFTVPGSKGTATISGLKPGVDYTITVYAVEYPYDYSGYYHRPISINYRTEIDKPSQHHHHHH
# B2: 2381D04 (designed binder)
# chain: B1 chain with Y82F, Y86H
# B3: 2381B04 (designed binder)
# chain: B1 chain with D85E, Y86H
# B4: 2451C06 (designed binder)
# chain: MGVSDVPRDLEVVAATPTSLLISWDAPAGAASYGYYRITYGETGGNSPVQEFTVPVSKGTATISGLKPGVDYTITVYAVEFPFPGAGYYHRPISINYRTEIDKPSQHHHHHH
# B5: 2382F05 (designed binder)
# chain: MGVSDVPRDLEVVAATPTSLLISWDAPAEAGKHYGYYRITYGETGGNSPVQEFTVPVSKGTATISGLKPGVDYTITVYAVEFDFPGAGYYHRPISINYRTEIDKPSQHHHHHH
# B6: 2382B09 (designed binder)
# chain: MGVSDVPRDLEVVAATPTSLLISWDAPADAYGYYRITYGETGGNSPVQEFTVPVSKGTATISGLKPGVDYTITVYAVEFDYPGSGYYHRPISINYRTEIDKPSQHHHHHH
# B7: 2382B10 (designed binder)
# chain: B6 chain with V54S, F79Y, Y81F
# B8: 2382D09 (designed binder)
# chain: B6 chain with D29E, A30G, Y81F, S84A
# B9: 2382H09 (designed binder)
# chain: B6 chain with D29A, V54S, Y81F
# B10: 2382H10 (designed binder)
# chain: B6 chain with D29G, A30G, Y81F
# B11: 2382C09 (designed binder)
# chain: B6 chain with D29E, A30G, Y81F
# B12: 2382D05 (designed binder)
# chain: MGVSDVPRDLEVVAATPTSLLISWDAPADGGYGYYRITYGETGGNSPVQEFTVPVSKGTATISGLKPGVDYTITVYAVEFDFPGAGYYHRPISINYRTEIDKPSQHHHHHH
# B13: 2382G04 (designed binder)
# chain: B12 chain with D29G, V55S
# B14: 2382H03 (designed binder)
# chain: B12 chain with D29E, G31A, F80Y, D81P, F82Y, G84F
# B15: 2382E03 (designed binder)
# chain: B12 chain with D29G, G30D
# B16: 2381H09 (designed binder)
# chain: B12 chain with D29G, P83V
# B17: 2382E05 (designed binder)
# chain: B12 chain with D29E
# B18: 2381B08 (designed binder)
# chain: B12 chain with V55S, F80Y, D81T
# B19: 2382D03 (designed binder)
# chain: B12 chain with G30E, G31A
# B20: 2382C05 (designed binder)
# chain: B12 chain with G31A, F80Y, D81S
# B21: 2381G09 (designed binder)
# chain: B12 chain with D29G, G30D, D81T
# B22: 2381F11 (designed binder)
# chain: B12 chain with G58S, F80Y, D81T
# B23: 2451H07 (designed binder)
# chain: MGITDVPRDLEVVAATPTSLLISWNPPDVNYGYYRITYGETGGNSPLQEFTVPVSKGTATISGLKPGVDYTITVYAVEYPYAHAGYYHRPISINYRTEIDKPSQHHHHHH
# B24: 2382B09 (designed binder)
# chain: B6 chain
# notes: Anti-PCSK9 Adnectin, His6-tagged
# B25: 2382D09 (designed binder)
# chain: B6 chain with D29E, A30G, Y81F, S84A
# notes: as for B24
# B26: 2382C09 (designed binder)
# chain: B6 chain with D29E, A30G, Y81F
# notes: as for B24
# B27: 2382B10 (designed binder)
# chain: B6 chain with V54S, F79Y, Y81F
# notes: as for B24
# B28: 1922G04(R25D) (designed binder)
# chain: MGVSDVPRDLEVVAATPTSLLISWDPPSHAYGYYRITYGETGGNSPVQEFTVPIGKGTATISGLKPGVDYTITVYAVEYPWKGSGYYHRPISINYRTGSGSHHHHHH
# notes: Anti-PCSK9 Adnectin, GSGS-His6 tail; the entry already carries the substitution
# B29: 1922G04(R25E) (designed binder)
# chain: B28 chain with D25E
# notes: as for B28
# B30: 2971A03 (designed binder)
# chain: B6 chain with A26P, A28S, A30D, V54I, S55G, D80P, Y81W, G83H, S84A
# B31: 2971A09 (designed binder)
# chain: B6 chain with A30D, V54I, S55G, D80P, Y81W, G83H, S84A
# B32: 2971E02 (designed binder)
# chain: B6 chain with A28S, A30D, V54I, S55G, D80P, Y81W, G83H, S84A
# Molecular target: T1, human PCSK9 (proprotein convertase subtilisin kexin type 9) (human, UniProt Q8NBP7 31-692)
# T1 construct: immobilized directly (ProteOn), biotinylated (Octet) or in solution, according to the assay; also called hPCSK9; PCSK9-AF647 (labelled form)
# Experiment: PCSK9:EGFA FRET, competitor EGFA peptide
row,EC50 [nM],Binder
1,2.5,B1
2,2.9,B2
3,2.4,B3
4,1.2,B4
5,2.4,B5
6,3.8,B6
7,3,B7
8,2.6,B8
9,0.9,B9
10,2.6,B10
11,3.5,B11
12,2.6,B12
13,2.9,B13
14,3.4,B14
15,2.4,B15
16,3.4,B16
17,2.8,B17
18,2.6,B18
19,3.3,B19
20,4,B20
21,3.1,B21
22,4,B22
23,0.2,B23

# Molecular target: T2, human PCSK9 (proprotein convertase subtilisin kexin type 9) (human, UniProt Q8NBP7 31-692)
# T2 construct: Directly immobilized (SPR ProteOn), biotinylated (BLI), or in solution, depending on the assay; also called hPCSK9
# Experiment: BLI Octet Red, 37 C
# Procedure: (§1) Tips were then immersed into a buffer-only well for observation of Adnectin dissociation. Experiments were performed in a temperature controlled environment at either 25 or 37° C., and the oscillation speed was set at 1500 rpm.
# (§2) Binding interaction analysis was performed using proprietary software from Fortebio (Fortebio Data Analysis Software version 6.3.0.36). Global fits were performed for all samples, using a 1:1 binding model. The nature of these global fits constrained all values of concentration to a single pair of association and dissociation rates that were themselves constrained to each other. Affinities (KD), association and dissociation rates were averaged over the various loading levels used in the analysis.
row,Kd [nM],Binder
1,0.656,B24
2,0.304,B25
3,0.757,B26
4,2.35,B27

# Molecular target: cynomolgus monkey PCSK9 (cynomolgus monkey, UniProt A0A7N9D9N8 150-747)
# Experiment: FRET, competitor EGFA peptide
# Source text: (§3) Table 11 summarizes the overall data from these three FRET assays.
IC50 [nM],EC50 [nM],Binder
48.1,,B28
58.5,,B29
,37.2,B24
,13.9,B25
,23.9,B26
,18.1,B27

# Molecular target: T2, human PCSK9 (proprotein convertase …)
# Experiment: FRET, competitor EGFA peptide
# Source text: as §3
IC50 [nM],EC50 [nM],Binder
2.5,,B28
3.5,,B29
3.8,3.8,B24
2.6,2.6,B25
3.5,3.5,B26
3,3,B27

# Molecular target: T2, human PCSK9 (proprotein convertase …)
# Experiment: FRET direct binding, anti-his6 antibody
# Source text: as §3
row,EC50 [nM],Binder
1,4,B24
2,3.7,B25
3,2.9,B26
4,3.1,B27

# Molecular target: T1, human PCSK9 (proprotein convertase …)
# Experiment: BLI (Octet Red), 37 C
# Procedure: as §1, §2
row,Kd [nM],Binder
1,3.29,B1
2,0.237,B2
3,0.527,B3
4,1.27,B4
5,4.54,B5
6,0.656,B6
7,2.35,B7
8,0.806,B30
9,2.79,B31
10,1.78,B32
11,0.304,B8
12,1.86,B9
13,1.4,B10
14,0.757,B11
15,0.314,B12
16,1.11,B13
17,0.677,B14
18,2.94,B15
19,3.23,B16
20,0.604,B17
21,4.11,B18
22,1.53,B19
23,2.49,B20
24,1.12,B21
25,1.59,B22
26,2.08,B23

# Molecular target: T2, human PCSK9 (proprotein convertase …)
# Experiment: FRET, competitor ATI001125
# Source text: as §3
row,IC50 [nM],Binder
1,0.6,B24
2,0.4,B25
3,0.6,B26
4,0.5,B27

# Molecular target: T2, human PCSK9 (proprotein convertase …)
# Experiment: BLI, biotinylated hPCSK9 on sensor tips
# Procedure: as §1, §2
Kd [nM],koff [s⁻¹],kon [M⁻¹ s⁻¹],Binder
0.656,0.000291,451000,B24
0.304,0.000164,533000,B25
0.757,0.000233,349000,B26
2.35,0.000977,394000,B27

# Molecular target: T1, human PCSK9 (proprotein convertase …)
# Experiment: cell-based or functional assay
row,LDLR Depletion (% inhibition at 75 nM) [%],Binder
1,125,B1
2,119,B2
3,122,B3
4,89.4,B4
5,72.2,B5
6,105,B6
7,100,B7
8,120,B30
9,132,B31
10,126,B32
11,109,B8
12,101,B9
13,119,B10
14,122,B11
15,146,B13
16,102,B14
17,89.5,B15
18,94.4,B16
19,104,B17
20,125,B18
21,80.4,B19
22,105,B20
23,133,B21
24,110,B22
25,88.8,B23
